This passage reports IC50 and MFI results from patent publication US20260234738A1 (Regeneron, published 2026).

Values joined by “and” are separate entries in the source; they are usually repeats but may differ in a detail not shown here. Identical values can stand only once.

The target of assay [1] is SARS-COV-2 Spike protein receptor binding domain (amino acids Arg319-Phe541) expressed with the Fc p (SARS-CoV-2).
For assay [2], the target named is Bt-SARS-CoV-2 Spike Protein (RBD) (R319-F541).mFc (SARS-CoV-2). In words: Luminex beads, supernatant.
The target in assay [3] is SARS-CoV-2 Spike Protein (RBD) (R319-F541).mFc (SARS-CoV-2). The assay is described as follows: Luminex beads, supernatant.

B1: mAb11006 (antibody, V domains shown)
VH: EVQLVESGGGLVQPGGSLRLSCAASGFIVSRNYMSWVRQAPGKGLEWVSVIYSGGSTFYADSVKGRFTISRHNSKNTLYLQMNSLKAEDTAVYYCARELRGYFDYWGQGTLVTVSS
VL: DIQLTQSPSFLSASVGDRVTITCWASQGISSYLAWYQQKPGKAPKLLIYAASTLQSGVPSRFSGSGSGTEFTLTISSLQPEDFATYYCQLLNSYPYTFGQGTKLEIKR
A word on the IC50: it is the concentration needed to halve the response being measured. A low value points to greater potency in that assay. B1 had an IC50 in assay [1] of 0.22 nM.

B2: mAb11008 (antibody, V domains shown)
VH: EVQLVESGGGLVQPGGSLRLSCAASGFTVSSNYMTWVRQAPGKGLEWVSVIYSGGSTFYADSVKGRFTISRHNSENTLYLQMNSLRAEDTAVYYCARDLAAAGTDYWGQGALVTVSS
VL: DIQLTQSPSFLSASVGDRVTITCWASQGISSYLAWYQQKPGKAPKLLIYAASTLQSGVPSRFSGSGSGTEFTLTISSLQPDDFATYYCQHLNSYLYTFGQGTKLEIKR
Turning to B2, the IC50 in assay [1] is 1.49 nM. This IC50 is about 6.8-fold higher than that of the molecule before.

B3: mAb11010 (antibody, V domains shown)
VH: QVQLVESGGGVVQPGRSLRLSCAASGFTFSSYGMHWVRQAPGKGLEWVAVISYDGSYKYYADSVKGRFTISRDNSKNTLYLQMNSLRAEDTAVYYCAIDGGTVTTIFDYWGQGTLVTVSS
VL: not shown
As to B3, the IC50 in assay [1] amounted to 0.147 nM.

B4: mAb10989 (antibody, V domains shown)
VH: QVQLVQSGAEVKKPGASVKVSCKASGYIFTGYYMHWVRQAPGQGLEWMGWINPNSGGANYAQKFQGRVTLTRDTSITTVYMELSRLRFDDTAVYYCARGSRYDWNQNNWFDPWGQGTLVTVSS
VL: QSALTQPASVSGSPGQSITISCTGTSSDVGTYNYVSWYQQHPGKAPKLMIFDVSNRPSGVSDRFSGSKSGNTASLTISGLQAEDEADYYCSSFTTSSTVVFGGGTKLTVLG
As for B4, the IC50 in assay [1] was 0.0591 nM and 0.0428 nM.

B5: mAb10998 (antibody, V domains shown)
VH: EVQLVESGGGLVHPGGSLRLSCAASGLTVSSNYMSWVRQAPGKGLEWVSVIYSGGSTYYADSVKGRFTISRHNSKNTLFLQMNSLRAEDTAVYYCARDRPITGTTLDVWGQGTTVTVSS
VL: DIQMTQSPSSLFASVGDRVTITCRASQSISSYLNWYQQKPGKAPKLLIYAASSLQSGVPSRFSGSGSGTDFTLTISSLQPEDFAFYYCQQTYSTPPITFGQGTRLEIKR
For the molecule B5, the IC50 in assay [1] was 4.3 nM.

B6: mAb10985 (antibody, V domains shown)
VH: EVQLVESGGGLVQPGRSLRLSCAASGFTFDDYAMHWVRQAPGKGLEWVSGISWNRGSIGYADSVKGRFTISRDNAKNSLYLQMSSLRAEDTALYYCAKDGERWDSVVVPSARNGMDVWGQGTTVTVSS
VL: QSVLTQPPSVSGAPGQRVTISCTGSSSNIGAGYDVHWYQQLPGTAPKLLIYGNSNRPSGVPDRFSGSKSGTSASLAITGLQAEDEADYYCQSYDSSLSGSYVFGTGTKVTVLG
Take B6: the IC50 in assay [1] is 0.0696 nM and 0.0411 nM.

B7: mAb10986 (antibody, V domains shown)
VH: EVQLVESGGGLVQPGGSLRLSCAASEFTVSSNYMSWVRQAPGKGLEWVSVIYSGGSTFYADSVKGRFTISRDNSKNTLYLQMNSLRAEDTAVYYCARALPYGDLHFDYWGQGTLVTVSS
VL: QSVLTQPPSVSGAPGQRVTISCTGSSSNIGTGYDVHWYQQLPGTAPKLLIYGNTNRPSGVPDRFSGSKSGTSASLAITGLQAEDEADYYCQSYDSSLSDSYVFGTGTKVTVLG
Take B7: the MFI in assay [2] stood at 15900 MFI; in assay [3], 28400 MFI.

B8: mAb10986 (antibody, V domains shown)
VH: EVQLVESGGGLVQPGGSLRLSCAASEFTVSSNYMSWVRQAPGKGLEWVSVIYSGGSTFYADSVKGRFTISRDNSKNTLYLQMNSLRAEDTAVYYCARALPYGDLHFDYWGQGTLVTVSS
VL: QSVLTQPPSVSGAPGQRVTISCTGSSSNIGTGYDVHWYQQLPGTAPKLLIYGNTNRPSGVPDRFSGSKSGTSASLAITGLQAEDEADYYCQSYDSSLSDSYVFGTGTKVTVLG
In assay [1], B8 returned an IC50 of 0.0754 nM.
